Assay results taken from patent publication CN112851815A (XIAN YUFAN BIOTECHNOLOGIES CO LTD, dated 2021).

How the values were obtained:
[1] = molecular target: T1, BSA蛋白 (BSA, control protein) (UniProt P02769 25-607); test: ELISA, BSA coated at 2 μg/mL, serially diluted scFv, detection by anti-HA and HRP goat anti-mouse IgG
T1 construct: Control protein coated at 2 μg/mL; also called 对照蛋白

[2] = molecular target: T2, BCMA蛋白 (BCMA protein, B cell maturation antigen) (human, UniProt Q02223 1-54); test: ELISA, BCMA coated at 2 μg/mL, serially diluted scFv, detection by mouse anti-HA and HRP goat anti-mouse IgG, OD450
T2 construct: extracellular domain; also called 抗原BCMA; CD269
T2 sequence (looked up): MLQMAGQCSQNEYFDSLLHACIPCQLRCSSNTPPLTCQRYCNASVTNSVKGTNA

T1 sequence (P02769 25-607 limits assumed): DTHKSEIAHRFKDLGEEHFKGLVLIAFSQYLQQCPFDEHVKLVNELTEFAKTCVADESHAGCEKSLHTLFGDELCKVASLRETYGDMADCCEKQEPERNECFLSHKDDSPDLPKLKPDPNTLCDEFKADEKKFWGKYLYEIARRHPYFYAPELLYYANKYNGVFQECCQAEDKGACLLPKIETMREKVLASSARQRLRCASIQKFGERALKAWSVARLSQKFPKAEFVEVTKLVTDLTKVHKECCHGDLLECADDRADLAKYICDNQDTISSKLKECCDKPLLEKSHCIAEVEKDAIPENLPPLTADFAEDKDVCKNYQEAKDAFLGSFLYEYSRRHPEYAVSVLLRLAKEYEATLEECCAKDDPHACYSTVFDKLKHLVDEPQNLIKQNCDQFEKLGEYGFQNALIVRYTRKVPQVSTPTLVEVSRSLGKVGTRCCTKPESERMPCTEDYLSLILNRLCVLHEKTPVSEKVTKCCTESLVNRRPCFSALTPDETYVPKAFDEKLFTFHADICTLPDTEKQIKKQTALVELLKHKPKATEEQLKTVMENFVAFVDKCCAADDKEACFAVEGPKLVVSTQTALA

B1: 抗BCMA单链抗体B36 (anti-BCMA fully human scFv B36) (scFv)
scFv: QVQLVQSGAEVKKPGSSVKVSCKASGGTFSSYAISWVRQAPGQGLEWMGRIIPILGIANYAQKFQGRVTITADESTSTAYMELSSLRSDDTAVYYCARAGYDRSGYYFQHWGQGTLVTVSSGGGGSGGGGSGGGGSVLTQPPSVSGTPGQRVTISCSGSSSNIGSNIVNWYQQVPGTAPKLLIYSNNQRPSGVPGRFSGSKSGTSASLAIRGLQSDDEADYYCAAWDGGPRGHYVFGTGTKVSVL
notes: The purified protein carries C-terminal HA and 6xHis tags; also called 抗BCMA抗体; 抗人BCMA单链抗体; not shown: C-terminal 6xHis tag from vector pET-26b; junction residues between insert and t
**Q.** Does B1 bind [1]?
**A.** no binding

**Q.** And the EC50 [2]?
**A.** 0.5 nM
